This passage reports Kd results from publication PMC12657241.

Assay [1] addresses OppA-iso, evolved OppA variant (E. coli) (UniProt P23843). Put plainly: MST.
In assay [2] the target is wild-type OppA, periplasmic binding protein of the oligopeptide permease (Opp) ABC transporter (E. coli) (UniProt P23843). In words: MST.

What is called Kd is the free concentration of one partner at which half of the binding sites on the other are occupied at equilibrium, for simple one-to-one binding. A high value points to lower affinity. For the substance G-SisoK, isopeptide-linked tripeptide, the values for the Kd in assay [1] and in assay [2] were 37 µM and 50 µM, respectively.
Turning to “SisoK, isopeptide-linked dipeptide (serine on the ε-amine of lysine)”, the dissociation constant Kd in assay [1] and in assay [2] was 300 µM in each case.
Turning to linear GSK tripeptide, the results for the Kd in assay [1] and in assay [2] were 275 µM and 71 µM, respectively.
